Laboratory results taken from patent US12410253B2, “Compositions comprising anti-NRP2 antibodies” (aTyr Pharma, Inc., priority 2019, dated 2025).
Numbering of substitutions follows the chain as printed. Entries after “also recorded” stand apart in the source; their conditions may differ. Blank lines part the entries; values can stand above or below the molecule they belong to.

Experiments:
Human NRP2 (aa23-855) = target: T1, Human NRP2 (aa23-855) (Homo sapiens, UniProt O60462); assay: SPR binding affinity of anti-NRP2 antibodies to human NRP2 antigen; conditions: KD = kd/ka, Langmuir (1:1) model
T1 construct: Human NRP2 (aa23-855)
T1 sequence (O60462 23-855 isoform O60462-3): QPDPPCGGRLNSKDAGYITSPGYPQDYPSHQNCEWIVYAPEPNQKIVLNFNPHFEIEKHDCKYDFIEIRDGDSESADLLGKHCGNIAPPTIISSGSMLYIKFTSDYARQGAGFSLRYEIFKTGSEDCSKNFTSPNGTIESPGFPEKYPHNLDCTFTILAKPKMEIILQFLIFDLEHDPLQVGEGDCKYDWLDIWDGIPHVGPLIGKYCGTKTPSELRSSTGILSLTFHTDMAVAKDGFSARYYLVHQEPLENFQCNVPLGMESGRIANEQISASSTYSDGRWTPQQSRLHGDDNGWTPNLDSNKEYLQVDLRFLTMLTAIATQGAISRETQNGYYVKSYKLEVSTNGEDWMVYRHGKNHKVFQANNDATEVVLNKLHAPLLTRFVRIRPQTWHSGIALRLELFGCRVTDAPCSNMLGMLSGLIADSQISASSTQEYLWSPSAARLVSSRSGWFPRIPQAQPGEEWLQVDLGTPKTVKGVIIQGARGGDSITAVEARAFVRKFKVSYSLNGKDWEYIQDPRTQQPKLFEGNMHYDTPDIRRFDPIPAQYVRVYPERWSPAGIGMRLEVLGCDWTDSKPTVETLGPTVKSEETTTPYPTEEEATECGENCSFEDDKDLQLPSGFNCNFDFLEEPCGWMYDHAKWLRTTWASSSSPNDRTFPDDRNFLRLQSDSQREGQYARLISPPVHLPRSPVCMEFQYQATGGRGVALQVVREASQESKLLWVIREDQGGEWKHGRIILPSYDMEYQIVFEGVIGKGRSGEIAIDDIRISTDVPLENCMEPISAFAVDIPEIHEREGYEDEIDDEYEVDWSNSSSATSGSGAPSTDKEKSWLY
Method: Anti-NRP2 antibody binding and affinity measurements. […] SPR experiments were conducted on a Bio-Rad ProteOn XPR36 Protein Interaction Array instrument. Biotinylated anti-human antibody (ThermoFisher Cat #7103302100) was immobilized on ProteOn NLC sensor chips. Anti-NRP2 antibodies were subsequently flowed over and captured by the anti-human antibody. Human NRP2 antigen protein was flowed over the captured antibody at varying concentrations (150, 50, 16.67, 5.56, 1.85 nM). The sensor chip surface was regenerated between each analyte run to remove anti-NRP2 antibodies and NRP2 protein. Data was double referenced against a surface with no anti-NRP2 antibody captured (immobilized anti-human antibody only) and a buffer only blank. Affinity constants were derived by globally fitting sensograms to a Langmuir (1:1) interaction model in the ProteOn manager software. For each anti-NRP2 antibody, data from the multiple NRP2 concentrations was fit as a single data set with dissociation rate constant (kd), association rate constant (ka) and Rmax values as global parameters. The reported binding affinity is the equilibrium dissociation constant (KD) calculated from kd/ka. • Running buffer: 50 mM HEPES, 300 mM NaCl, 5 mM CaCl2), 0.005% Tween-20, pH 7.4 • Immobilized antibody: CaptureSelect Human Fab-kappa Kinetics Biotin Conjugate, ThermoFisher Cat #7103302100 • Antigen: Human NRP2 (aa23-855) with C-terminal Avi-, Myc- and His-tags • Regeneration buffer: 10 mM glycine pH 2.0

[1] = tested on: phospho-Akt levels in U251 glioblastoma cells; assay: Semaphorin 3F mediated inhibition of AKT phosphorylation in U251 cells; assay type: cell-based
Method: As shown schematically in FIG. 17, the treatment of cells with Sema3F should specifically block PI3K activity via NRP2 mediated interaction with plexin A1, thereby resulting in reduced phospho-Akt levels. To directly test the ability of the anti-NRP2 antibodies to block this effect, lysates were prepared following standard protocols (MesoScale Discovery, Phospho (Ser473)/Total Akt Assay Whole Cell Lysate Kit #K15100D). Serum starved and confluent U251 cells (Sigma, Cat. 09063001) were treated with 10 nM rapamycin (Sigma, Cat. 553211, 30 minutes), and blocking antibodies or controls were added (10 μg/mL, 30 minutes), followed by 25 nM Sema3F or serum free media for 1 hour in triplicate. Lysate protein concentrations were determined by BCA assay and samples were equalized to 0.4 mg/mL. Phospho and Total AKT were measured following the manufacturer's instructions and percent phosphorylation was calculated by dividing phosphorylated AKT relative units by total AKT relative units. Blocking of Sema3F for each antibody or control was determined by comparing percent phosphorylation of Sema3F treated cells to percent phosphorylation of non-Sema3F treated cells.

B2: aNRP2-1v3: humanized, affinity matured anti-NRP2 antibody, target domain b2; VH SEQ ID NO: 43, VL SEQ ID NO: 44 (antibody, V domains shown)
VH: QVQLVQSGAEVKKPGASVKVSCKASGYTFTSYWMHWVRQAPGQGLEWMGAIYPGNSDTSYNQQFKGRVTMTRDTSTSTVYMELSSLRSEDTAVYYCARRGGGYFDYWGQGTLVTVSS
VL: DIQLTQSPSFLSASVGDRVTITCKASQNVGAAVAWYQQKPGKAPKLLIYSASNRYTGVPSRFSGSGSGTEFTLTISSLQPEDFATYYCQQYSSYPLLTFGGGTKVEIK
modifications: Variable heavy chain region; Light chain variable region
Kd (Human NRP2 (aa23-855)): 17 nM

B3: Sema3F: Semaphorin 3F, NRP2 ligand used to reduce phospho-Akt levels (protein)
chain: SFPTQDHLPATPRVRLSFKELKATGTAHFFNFLLNTTDYRILLKDEDHDRMYVGSKDYVLSLDLHDINREPLIIHWAASPQRIEECVLSGKDVNGECGNFVRLIQPWNRTHLYVCGTGAYNPMCTYVNRGRRAQATPWTQTQAVRGRGSRATDGALRPMPTAPRQDYIFYLEPERLESGKGKCPYDPKLDTASALINEELYAGVYIDFMGTDAAIFRTLGKQTAMRTDQYNSRWLNDPSFIHAELIPDSAERNDDKLYFFFRERSAEAPQSPAVYARIGRICLNDDGGHCCLVNKWSTFLKARLVCSVPGEDGIETHFDELQDVFVQQTQDVRNPVIYAVFTSSGSVFRGSAVCVYSMADIRMVFNGPFAHKEGPNYQWMPFSGKMPYPRPGTCPGGTFTPSMKSTKDYPDEVINFMRSHPLMYQAVYPLQRRPLVVRTGAPYRLTTIAVDQVDAADGRYEVLFLGTDRGTVQKVIVLPKDDQELEELMLEEVEVFKDPAPVKTMTISSKRQQLYVASAVGVTHLSLHRCQAYGAACADCCLARDPYCAWDGQACSRYTASSKRASRAQDVRHGNPIRQCRGFNSNANKNAVESVQYGVAGSAAFLECQPRSPQATVKWLFQRDPGDRRREIRAEDRFLRTEQGLLLRALQLSDRGLYSCTATENNFKHVVTRVQLHVLGRDAVHAALFPPLSMSAPPPPGAGPPTPPYQELAQLLAQPEVGLIHQYCQGYWRHVPPSPREAPGAPRSPEPQDQKKPRNRR
decrease in intracellular phospho-Akt levels ([1]; 25 nM Sema3F, 1 hour): approximately 50%

B6: aNRP2-2v4: humanized, affinity matured anti-NRP2 antibody, target domain c; VH SEQ ID NO: 45, VL SEQ ID NO: 46 (antibody, V domains shown)
VH: QVQLVQSGAEVKKPGASVKVSCKASGYTFTSYWMHWVRQAPGQGLEWMGVIHPNSASTFYNERFKTRATMTVDRSSSTAYMELSSLRSEDTAVYYCSRPGTVRRSDYWGQGTTVTVSS
VL: DVVMTQSPLSLPVTLGQPASISCRSSQNIVHSTGNTYLEWYQQRPGQSPRLLIYKVSNRFSGVPDRFSGSGSGTDFTLKISRVEAEDVGVYYCFQGSHVPWTFGGGTKVEIK
modifications: Variable heavy chain region; Light chain variable region
Kd (Human NRP2 (aa23-855)): 2.7 nM

Further lines, with some results ahead:

Kd (Human NRP2 (aa23-855)): 0.17 nM
B1: aNRP2-14v10: humanized, affinity matured anti-NRP2 antibody, target domain a2, semaphorin blocking; VH SEQ ID NO: 55, VL SEQ ID NO: 56 (antibody, V domains shown)
VH: QLQLVESGGGVVQPGRSLRLSCTVSGFSLTSYGVHWVRQAPGKGLEWVGLIWSGGSTDYSPAFISRFTISEDNSKSTVYLQMNSLRAEDTAVYFCARNSYSSGYYAMDYWGQGTTVTVSS
VL: B2 VL with A31T, Y91R, S93R, L96P, L97Y
modifications: Variable heavy chain region; Light chain variable region
blocking of the Sema3F induced decrease in intracellular phospho-Akt levels ([1]; antibody 10 μg/mL, 25 nM Sema3F 1 hour): blocked the reduction in phospho-Akt levels; also recorded: block semaphorin 3F mediated inhibition of AKT phosphorylation; also recorded: can be blocked

Kd (Human NRP2 (aa23-855)): 0.358 nM
B4: aNRP2-10v13: humanized, affinity matured anti-NRP2 antibody, target domain b1; VH SEQ ID NO: 69, VL SEQ ID NO: 70 (antibody, V domains shown)
VH: EVQLVQSGAEVKKPGATVKISCKVSGFNIKDYYVHWVQQAPGKGLEWMGRIDVHDDETKYAPKFQGRVTITADTSTDTAYMELSSLRSEDTAVYYCATPIYGAREAWFAYWGQGTLVTVSS
VL: DIQMTQSPSSLSASVGDRVTITCTASSSVSSSYLHWYQQKPGKAPKLLIYRTSNLASGVPSRFSGSGSGTDFTLTISSLQPEDFATYYCHQYYRSPPTFGGGTKVEIK
modifications: Variable heavy chain region; Light chain variable region

Kd (Human NRP2 (aa23-855)): 0.2 nM
B5: aNRP2-10v5: humanized, affinity matured anti-NRP2 antibody, target domain b1; VH SEQ ID NO: 47, VL SEQ ID NO: 48 (antibody, V domains shown)
VH: B4 VH with V34I, H54E, A103S
VL: B4 VL
modifications: Variable heavy chain region; Light chain variable region
